As a reminder, the Km is the concentration of substrate that gives half-maximal velocity. What is called Vmax is the top rate of the reaction or transport when substrate is in excess.

Data set [1] addresses integrin αvβ3 receptor (Homo sapiens, UniProt P05106+P06756). The data set is described as follows: ELISA binding ability of DTPA modified and In-labeled yCD series protein to integrin αvβ3 receptor. The note with it: before and after modification, marking, purification. The text has this:
The curve and receptor binding ability parameters (see FIG. 19 and Table 14) are fitted by the binding ability of DTPA-modified protein and integrin αvβ3 receptor through the One site-Specific binding formula in the Graph prism program.
Before the protein is labeled by radioisotope, its enzyme function must be determined, and based on the original enzyme function, it should be examined whether it will be affected during the radioactive marking process. The curve and enzyme kinetic parameters of protein are fitted by the Michaelis-Menten formula in the Graph prism program. […] Whether the yCD and RGD4C-yCD protein detected by the same method will be affected under the conditions of DTPA modification, marking and purification. […] After the completion of the radioactive metal mark, it is necessary to add EDTA of 10-fold protein Moire number and react at room temperature for 1 hour to compete for the radioactive metal isotope indium which is not chelated on DTPA. The EDTA in this step also has the chance to chelate the metal zinc ion of the enzyme catalytic center, the enzyme activity is impaired, so it is necessary to analyze the enzyme activity of In-DTPA-yCD and In-RGD4C-yCD protein after competition with EDTA. […]

The subject of data set [2] is HUVEC, U87MG and MCF-7 cells. Briefly: Specific binding assay of yCD series recombinant protein and cell, statement for the three cells. Type of data set: cell-based, human. The method, then:
FIG. 5A, FIG. 5B, and FIG. 5C are respectively represented HUVEC cells, U87MG cells, MCF-7 cells seeded in 96-well plates for 24 hours, and then RGD4C-yCD, yCD, RGD4C-yCD/UPRT and yCD/UPRT with different concentrations are added for cells binding assay. After reacted with anti-His-HRP antibody and TMB substrate, ELISA reader (OD450 nm) is used to detect the amount of recombinant protein bound to the cells, and the binding curve is drawn. The nonlinear curve of the prism software is used to make a diagram and calculate the dissociation constant (Kd).
The anti-His6-Tag-HRP antibody and TMB show the color reagent to detect the amount of recombinant protein bound to the cell, then the dissociation constant Kd value of the recombinant protein and the integrin αvβ3 receptor is calculated and a binding curve is drawn. […] The cell binding ability of RGD4C-yCD for HUVEC and U87MG are about 7.7 folds and 6.8 folds higher than MCF-7 respectively. The cell binding ability of RGD4C-yCD/UPRT for HUVEC and U87MG are about 6.9 folds and 5.8 folds higher than MCF-7 respectively. […] It is shown that RGD4C-yCD and RGD4C-yCD/UPRT are specially bound with integrin αvβ3 through RGD4C sequence.

Data set [3] can be described thus: Enzyme stability of EcCD series fusion protein and yCD protein in FBS or transferrin. Type of data set: in vitro ADME. The conditions noted are these: 37° C.; for enzyme activity: 24 hours. As to the method:
FIGS. 12A-12C show an enzyme stability analysis of EcCD series fusion protein and yCD protein.
Previous literature reports indicate that the thermostability of E. coli cytosine deaminase (EcCD) is better than that of yCD. […] In order to simulate the environment of the protein in the cell killing test, the EcCD series fusion protein and the yCD protein are cultured in 10% FBS at 37° C. for 0, 1, 2, 4, 24 hours, and then determine the enzyme kinetics. It can be observed from the results that the yCD protein is cultured in 10% FBS for 1 hour, the enzyme activity is reduced to 80%, and when cultured for 2 and 4 hours, the enzyme activity is reduced to 50% and 20%, respectively, and the enzyme activity is lost after culturing for 24 hours, while the EcCD series fusion protein is similar to the culture in 100% FBS, which can maintain the original enzyme activity (see FIG. 12B). The literature points out that the metal ion of the enzyme catalytic center will affect the stability of the enzyme. In the yCD protein involved in the enzyme reaction, the metal ion of the enzyme catalytic center has a considerable relationship with the enzyme activity. The protein associated with transporting metal ions in serum is transferrin. It is speculated that transferrin may be related to the enzyme activity of yCD protein. Therefore, the EcCD series fusion protein and yCD protein are co-cultured respectively with transferrin at a concentration of 3 mg/ml (normal concentration 2.1-3.4 mg/mL) at 37° C. for 0, 1, 2, 4, 24 hours, then determine the enzyme kinetics (see FIG. 12C), it is known from the results that the longer the yCD protein is cultured in the transferrin, the lower the enzyme activity will be. […] This trend is similar to the culture at 10% in FBS. It is speculated that the factor of reducing the activity of yCD protein in FBS has a great relationship with transferrin. The stability of yCD protein in FBS is poor, and the stability of EcCD series fusion protein is better, so the industrial use of EcCD series fusion protein in both sexual and therapeutic applications is better than that of yCD protein, and it is also confirmed that the mutation of RGD4C peptide and D314A will not affect the enzyme stability of EcCD protein.

The nature of data set [4]: Enzyme kinetic analysis of yCD series proteins after DTPA modification, marking and purification. Type of data set: biochemical. The text has this:
The enzyme activity of yCD is not affected by DTPA modification.
FIGS. 24A-24B show the kinetic curve of yCD series protein modified, labeled and purified by DTPA. The enzyme activity of the two proteins is not affected by the labeling conditions. After adding EDTA with a 10-fold molar excess of protein, and it is competitively purified, In-DTPA-yCD compared with the original enzyme activity.
The curve and enzyme kinetic parameters (see FIG. 18 and Table 13) are fitted by the […] protein enzyme kinetics through the Michaelis-Menten formula in the Graph prism program.
Before the protein is labeled by radioisotope, its enzyme function must be determined, and based on the original enzyme function, it should be examined whether it will be affected during the radioactive marking process. The curve and enzyme kinetic parameters of protein are fitted by the Michaelis-Menten formula in the Graph prism program. […] Whether the yCD and RGD4C-yCD protein detected by the same method will be affected under the conditions of DTPA modification, marking and purification. […] After the completion of the radioactive metal mark, it is necessary to add EDTA of 10-fold protein Moire number and react at room temperature for 1 hour to compete for the radioactive metal isotope indium which is not chelated on DTPA. The EDTA in this step also has the chance to chelate the metal zinc ion of the enzyme catalytic center, the enzyme activity is impaired, so it is necessary to analyze the enzyme activity of In-DTPA-yCD and In-RGD4C-yCD protein after competition with EDTA. After the EDTA competitive reaction is completed, the enzyme kinetics analysis can be carried out by reducing the EDTA molecule weight through membrane centrifugation method and by replacing the solution with pH 7.0. […] The curve and receptor binding ability parameters of the protein and integrin αvβ3 are fitted under the conditions of DTPA modification, marking and purification by the One site-Specific binding formula in the Graph prism program (see FIG. 25 and Table 18). […] Although the two proteins after marking are greatly affected by the enzyme activity, they still have good binding ability to the integrin αvβ3 receptor. In consideration of the indispensability of EDTA for radiochemical purity, it retains a considerable amount of enzyme activity. In addition, the effect of integrin αvβ3 receptor binding ability is minimal, in combination of cell uptake, biodistribution and angiography experiment, focusing on the evaluation of target results, and the subsequent biological experiment is still carried out by the marking and purification conditions.

integrin αvβ3 receptor, sequence (P06756 31-889 limits assumed): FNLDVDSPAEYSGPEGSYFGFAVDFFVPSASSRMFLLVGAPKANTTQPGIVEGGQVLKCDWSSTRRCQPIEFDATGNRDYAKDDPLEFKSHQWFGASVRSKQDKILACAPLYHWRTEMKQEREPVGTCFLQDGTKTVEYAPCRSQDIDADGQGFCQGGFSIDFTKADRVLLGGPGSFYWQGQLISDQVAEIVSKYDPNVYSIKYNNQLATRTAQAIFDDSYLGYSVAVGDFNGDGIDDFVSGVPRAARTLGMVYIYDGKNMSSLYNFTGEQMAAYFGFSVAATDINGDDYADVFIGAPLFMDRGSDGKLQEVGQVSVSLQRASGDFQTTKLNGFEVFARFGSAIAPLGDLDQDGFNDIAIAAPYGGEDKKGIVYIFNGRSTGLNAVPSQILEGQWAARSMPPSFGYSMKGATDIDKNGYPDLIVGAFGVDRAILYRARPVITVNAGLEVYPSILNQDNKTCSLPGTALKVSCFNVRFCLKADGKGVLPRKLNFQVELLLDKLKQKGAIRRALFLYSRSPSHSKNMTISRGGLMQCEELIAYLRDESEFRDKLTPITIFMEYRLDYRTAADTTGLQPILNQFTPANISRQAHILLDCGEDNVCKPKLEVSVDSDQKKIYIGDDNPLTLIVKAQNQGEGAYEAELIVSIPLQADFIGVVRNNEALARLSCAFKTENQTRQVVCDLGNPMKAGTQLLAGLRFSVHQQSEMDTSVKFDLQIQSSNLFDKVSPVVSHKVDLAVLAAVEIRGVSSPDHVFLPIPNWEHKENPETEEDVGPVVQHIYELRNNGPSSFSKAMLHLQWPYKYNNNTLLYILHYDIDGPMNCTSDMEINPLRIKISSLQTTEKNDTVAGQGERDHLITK
integrin αvβ3 receptor, sequence (P06756 891-1048 partner limits assumed): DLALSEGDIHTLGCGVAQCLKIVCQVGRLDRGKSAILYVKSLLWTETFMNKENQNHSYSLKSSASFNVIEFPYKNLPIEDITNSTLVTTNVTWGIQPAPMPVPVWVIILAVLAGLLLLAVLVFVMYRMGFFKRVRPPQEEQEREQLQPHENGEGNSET
integrin αvβ3 receptor, sequence (P05106 27-788): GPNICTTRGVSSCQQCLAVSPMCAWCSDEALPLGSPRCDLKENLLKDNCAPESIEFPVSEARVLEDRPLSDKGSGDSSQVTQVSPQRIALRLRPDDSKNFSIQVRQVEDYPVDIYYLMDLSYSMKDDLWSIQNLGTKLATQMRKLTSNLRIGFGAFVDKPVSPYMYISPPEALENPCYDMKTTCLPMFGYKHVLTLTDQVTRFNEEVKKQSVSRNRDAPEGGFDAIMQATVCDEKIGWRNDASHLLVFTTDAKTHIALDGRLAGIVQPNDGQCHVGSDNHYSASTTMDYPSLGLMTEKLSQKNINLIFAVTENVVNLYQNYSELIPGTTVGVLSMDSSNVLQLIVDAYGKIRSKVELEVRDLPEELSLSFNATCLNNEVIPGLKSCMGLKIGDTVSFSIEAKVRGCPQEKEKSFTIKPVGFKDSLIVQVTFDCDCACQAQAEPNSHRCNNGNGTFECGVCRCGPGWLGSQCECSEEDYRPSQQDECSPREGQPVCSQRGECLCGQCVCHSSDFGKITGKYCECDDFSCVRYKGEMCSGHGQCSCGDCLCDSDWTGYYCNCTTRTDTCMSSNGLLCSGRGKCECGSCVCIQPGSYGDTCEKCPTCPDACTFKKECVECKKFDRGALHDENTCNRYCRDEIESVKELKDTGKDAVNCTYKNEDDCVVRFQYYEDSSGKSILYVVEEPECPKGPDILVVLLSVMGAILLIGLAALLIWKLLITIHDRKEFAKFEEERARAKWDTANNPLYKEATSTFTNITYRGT

B1: yCD: yeast cytosine deaminase (yCD) (SEQ ID NO: 1), recombinant protein without target molecule (protein)
chain: MVVTGGMASKWDQKGMDIAYEEAALGYKEGGVPIGGCLINNKDGSVLGRGHNMRFQKGSATLHGEISTLENCGRLEGKVYKDTTLYTTLSPCDMCTGAIIMYGIPRCVVGENVNFKSKGEKYLQTRGHEVVVVDDERCKKIMKQFIDERPQDWFEDIGELEHHHHHH
modifications: yCD
B1: the “binding with integrin αvβ3 receptor” value in data set [1] was “can not be bound”. In data set [2], the “binding to the three cells” value is given as “weak binding”. Besides, the “enzyme activity” value in data set [3] (3 mg/ml transferrin) was “close to the loss of activity”; in data set [3] (10% FBS), “lost”. Moreover, the “enzyme activity (Kcat/Km relative to 0 hours)” value in data set [3] (10% FBS, 1 hour) is reported as 80%; in data set [3] (10% FBS, 2 hours) it was 50%; in data set [3] (10% FBS, 4 hours), 20%. Further, the Km in data set [4] was 840 ± 71.9 µM. Further, the maximal velocity (Vmax) in data set [4] was found to be 264.1 ± 8.256 µM/min.

The record behind these values is patent US10947270B2, “Targeted prodrug cytosine deaminase fusion carrier and application thereof” (National Yang-Ming University, priority 2015, dated 2021).
